Laboratory results taken from article PMC2192141.

Target: HMG I/Y (recombinant HMG I) (UniProt P17096 1-107)
Assay: EMSA

Chain of HMG I/Y (recombinant HMG I) (P17096 whole entry): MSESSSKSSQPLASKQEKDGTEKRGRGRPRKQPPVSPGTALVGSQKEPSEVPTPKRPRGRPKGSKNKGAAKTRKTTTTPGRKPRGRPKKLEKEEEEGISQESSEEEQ

Row | Binder | binding result
1 | MOCT (mutant octamer) (dsDNA) DNA 1: AGAGTAATTGATGGGCATTTTAATGG DNA 2: CCATTAAAATGCCCATCAATTACTCT | no binding
2 | MIS (mutant D box) (dsDNA) DNA 1: ATCTCAAAATATGGGTCTGATTGGCCA DNA 2: TGGCCAATCAGACCCATATTTTGAGAT | no binding
